In publication PMC12963305:

Target: EmER1, EGF receptor of Echinococcus multilocularis, extracellular region in the MALAR-Y2H receptor vector (Echinococcus multilocularis)

For “human EGF, extracellular domain in the MALAR-Y2H ligand vector (from UniProt P01133 23-1032)”, the germinal vesicle breakdown (GVBD) of Xenopus oocytes expressing EmER1 from cRNA, stimulated by 50 nM recombinant human EGF, counted after 15 h was 30%.
